Source: US20230287131A1 (ORIONIS BIOSCIENCES, published 2023)

What was measured:
[1] = biological target: hTNF-R2 on Raji cells or PC60-hTNFR2 cells (human) (UniProt P20333); assay: cell-based or functional assay
[2] = biological target: T1, soluble hTNF-R1 (Peprotech) (human, UniProt P19438 30-211); assay: BLI (Octet RED96), affinity relative to WT hTNF
T1 construct: extracellular domain; also called p55
T1 sequence (looked up): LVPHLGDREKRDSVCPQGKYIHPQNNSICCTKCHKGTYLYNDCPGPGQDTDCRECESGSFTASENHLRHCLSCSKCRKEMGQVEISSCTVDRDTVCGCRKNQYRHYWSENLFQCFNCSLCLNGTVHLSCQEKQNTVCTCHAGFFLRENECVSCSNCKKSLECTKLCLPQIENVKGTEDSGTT
Protocol: (§1) KD values were calculated using global fitting with a 1:1 model (R²≥0.95).

[3] = biological target: T2, soluble hTNF-R2 (Peprotech) (human, UniProt P20333 23-257); assay: BLI (Octet RED96), His-tagged TNF on HIS1K biosensor, soluble receptor in solution, 1:1 global fit
T2 construct: extracellular domain; also called p75
T2 sequence (looked up): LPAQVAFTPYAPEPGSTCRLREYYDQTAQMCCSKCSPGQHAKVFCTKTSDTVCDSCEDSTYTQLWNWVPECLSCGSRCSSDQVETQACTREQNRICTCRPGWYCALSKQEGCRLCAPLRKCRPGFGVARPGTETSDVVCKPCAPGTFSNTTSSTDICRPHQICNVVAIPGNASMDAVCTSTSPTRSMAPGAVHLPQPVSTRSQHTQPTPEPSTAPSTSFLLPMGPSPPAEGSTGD
Protocol: as §1

[4] = biological target: T1, soluble hTNF-R1 (Peprotech); assay: as above
Protocol: as §1

## BclI10 Nanobody (control) - 20xGGS - hTNF Y87H/A145R - 6xHis AcTakine
[1]
  OPRM1 mRNA expression in Raji cells (qPCR), against unstimulated cells: 5 fold

B1: hTNF mutant A145T E146D S147D (N-terminal 6xHis tag) (ligand)
chain: HHHHHHVRSSSRTPSDKPVAHVVANPQAEGQLQWLNRRANALLANGVELRDNQLVVPSEGLYLIYSQVLFKGQGCPSTHVLLTHTISRIAVSYQTKVNLLSAIKSPCQRETPEGAEAKPWYEPIYLGGVFQLEKGDRLSAEINRPDYLDFTDDGQVYFGIIAL
[2]
  % WT R1: 0.35%
[3]
  Kd: 4.78 nM
[4]
  Kd: 5100 nM
